Assay results from paper PMC6867900, “The Cyclic AMP Receptor Protein Regulates Quorum Sensing and Global Gene Expression in Yersinia pestis during Planktonic Growth and Growth in Biofilms” (mBio, 2019).

Molecular target: the molecule itself
Test: crystal structure

B1: Yersinia pestis cyclic AMP (cAMP) receptor protein (Crp) (natural protein)
chain: MVLGKPQTDPTLEWFLSHCHIHKYPSKSTLIHQGEKAETLYYIVKGSVAVLIKDEEGKEMILSYLNQGDFIGELGLFEEGQERSAWVRAKTACEVAEISYKKFRQLIQVNPDILMRLSSQMANRLQITSEKVGNLAFLDVTGRIAQTLLNLAKQPDAMTHPDGMQIKITRQEIGQIVGCSRETVGRILKMLEDQNLISAHGKTIVVYGTR
notes: also called Y. pestis Crp
Which “stoichiometry N” value does the source give for B1 here?
The value was 2.
